From the supplement of paper PMC10126150
± gives the standard deviation of the averaged measurements.

Tested on: ATP
Test: switch fluorescence ratio, 500 uM ATP over buffer (Cy3 cluster intensity, sum of 5 cycles each) (fold (ratio)); higher = stronger signal-on switching upon ATP binding; sequences stand for … in TCGTCGGCAGCGTCAGATGTGTATAAGAGACAGTTTTTTTTTTTTTTTTTTTTTTTTT…TC
Conditions: aptamer strand: ATP DNA aptamer (quencher-CACCTGGGGGAGTATTGCGGAGGAAGG + anchor), 100 nM annealed; ATP concentration: 500 uM
Procedure, shortened: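 For every switch-domain sequence, the fluorescence ratio is the mean of per-cluster values, each being summed target-cycle Cy3 intensity over summed buffer-cycle Cy3 intensity. Clusters outside 100-1000 RFU were excluded. On a modified Illumina MiSeq flow-cell, the Cy3-labelled switching-strand clusters were annealed to 100 nM quencher-labelled ATP aptamer, imaged in selection buffer and then after 15 min with 500 uM ATP at 22 °C. Five such cycles were run, with NaOH stripping and re-annealing between them.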
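Further: ATP exposure 15 min at 22 °C before imaging.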

CCATGGGGGA
switch fluorescence ratio: 1.01 ± 0.0019

AAAGGTTATC
switch fluorescence ratio: 1.018 ± 0.0098

GAGGTGACTG
switch fluorescence ratio: 1.01 ± 0.015

TTGAGGGTTT
switch fluorescence ratio: 0.994 ± 0.029

CCCATGCGTT
switch fluorescence ratio: 1.03 ± 0.063

TTAATTGAAG
switch fluorescence ratio: 0.958 ± 0.04

GCTAATGGGA
switch fluorescence ratio: 0.994 ± 0.018

GTGGGGTTTT
switch fluorescence ratio: 0.983 ± 0.022

GACTGGGTG
switch fluorescence ratio: 1.04 ± 0.014

GCGGGCGGGA
switch fluorescence ratio: 1.031 ± 0.0098

GCACGGGGCG
switch fluorescence ratio: 1.03 ± 0.034

TGAATTTTTG
switch fluorescence ratio: 0.989 ± 0.028

TTGGGTGGTA
switch fluorescence ratio: 0.988 ± 0.028

TCCAGGGGAA
switch fluorescence ratio: 1.03 ± 0.014

GTCGTTGGTT
switch fluorescence ratio: 0.985 ± 0.033

TCTGAGGGGA
switch fluorescence ratio: 1.02 ± 0.055

CTGTAAGGAA
switch fluorescence ratio: 0.989 ± 0.026

TTACTATATG
switch fluorescence ratio: 1.03 ± 0.018

CTAAGCGGCG
switch fluorescence ratio: 0.999 ± 0.026

GTGATCTTTT
switch fluorescence ratio: 1 ± 0.049

TCTGTTTTTT
switch fluorescence ratio: 0.989 ± 0.01

GGGTTTCGAA
switch fluorescence ratio: 0.9702 ± 0.0018

GAAGGTCGGC
switch fluorescence ratio: 0.994 ± 0.036

TGTGGGGGAA
switch fluorescence ratio: 1.2 ± 0.31

CAGCGATTTA
switch fluorescence ratio: 1.02 ± 0.053

AGTATAGGGT
switch fluorescence ratio: 0.972 ± 0.029

GTTATAAGTT
switch fluorescence ratio: 1.06 ± 0.027

TTTCATTAGT
switch fluorescence ratio: 0.99 ± 0.045

GCTGTAAGTA
switch fluorescence ratio: 0.988 ± 0.017

CGGGTGCCGT
switch fluorescence ratio: 1.06 ± 0.15

AAGGGAGTCA
switch fluorescence ratio: 0.992 ± 0.031

CGGTTTTGTT
switch fluorescence ratio: 1.02 ± 0.035

CGAAGCAGCG
switch fluorescence ratio: 1.4 ± 0.044

CAATGAGTAT
switch fluorescence ratio: 1.011 ± 0.003

CCTAACAGTT
switch fluorescence ratio: 1.02 ± 0.0039

GTGTTGTACG
switch fluorescence ratio: 0.999 ± 0.015

ATAGTATCTT
switch fluorescence ratio: 1 ± 0.021

TCAGGCATTG
switch fluorescence ratio: 0.979 ± 0.018

AAGTTACAGT
switch fluorescence ratio: 1.04 ± 0.036

ACAACGCGT
switch fluorescence ratio: 0.982 ± 0.013

TGCTCTTTGG
switch fluorescence ratio: 1 ± 0.025

TGAGGGAATT
switch fluorescence ratio: 1.01 ± 0.018

ACCGTAGCTT
switch fluorescence ratio: 2.61 ± 0.14

GATTTTTTGT
switch fluorescence ratio: 0.99 ± 0.028

AGGGATCCTA
switch fluorescence ratio: 0.978 ± 0.012

TACTCTCGGT
switch fluorescence ratio: 1.035 ± 0.0057

GCATAGGGAA
switch fluorescence ratio: 1 ± 0.015

AGAGTACTGG
switch fluorescence ratio: 1.01 ± 0.01

ACTGGACTGT
switch fluorescence ratio: 1.18 ± 0.026

CACTAGACGG
switch fluorescence ratio: 1.45 ± 0.064

TAACCCGATT
switch fluorescence ratio: 0.997 ± 0.029

CTTGGCAAGG
switch fluorescence ratio: 1.03 ± 0.04

CGAGTTTGAC
switch fluorescence ratio: 0.977 ± 0.019

GTTTTATTGC
switch fluorescence ratio: 0.975 ± 0.04

CGGATAGAGG
switch fluorescence ratio: 0.964 ± 0.012

CGGCGAAGTT
switch fluorescence ratio: 0.9883 ± 0.0046

ACGTATTCAT
switch fluorescence ratio: 1.11 ± 0.013

GATTGATGTG
switch fluorescence ratio: 0.995 ± 0.037

AGCGTTCTTA
switch fluorescence ratio: 1.02 ± 0.041

TGCATTGGGG
switch fluorescence ratio: 1 ± 0.024

TTTAATCCGT
switch fluorescence ratio: 1.01 ± 0.055

TCAATTGAGA
switch fluorescence ratio: 1.02 ± 0.01

GATTAGGCGG
switch fluorescence ratio: 0.982 ± 0.066

CGGATTTGAC
switch fluorescence ratio: 1.015 ± 0.0028

TGTTTTGGCA
switch fluorescence ratio: 0.9963 ± 0.0052

AGCTTGTGAA
switch fluorescence ratio: 1.01 ± 0.011

GTTTTAGGGG
switch fluorescence ratio: 1.01 ± 0.052

TTTCAGGTAA
switch fluorescence ratio: 0.988 ± 0.017

GTTTTTTGTC
switch fluorescence ratio: 1.03 ± 0.049

ATGGGTAATC
switch fluorescence ratio: 1.03 ± 0.026

TTTTTGCATG
switch fluorescence ratio: 1.03 ± 0.047

GGGCATGTCT
switch fluorescence ratio: 1.03 ± 0.042

CGTGGCAGCA
switch fluorescence ratio: 1.0326 ± 3.9e-05

GCAAGGGGTT
switch fluorescence ratio: 1 ± 0.063

CCAGGGCTAG
switch fluorescence ratio: 1.02 ± 0.062

TTTTGGTTGC
switch fluorescence ratio: 1.02 ± 0.032

GGAGATTGAA
switch fluorescence ratio: 0.992 ± 0.019

GTTTTTATTG
switch fluorescence ratio: 0.992 ± 0.042

TCGGAGATAT
switch fluorescence ratio: 1 ± 0.045

GGAGACTCAA
switch fluorescence ratio: 0.988 ± 0.016

TTTTGCTGGG
switch fluorescence ratio: 1.03 ± 0.11

TGGTTAAGAT
switch fluorescence ratio: 0.999 ± 0.038

TTTGTCGTCG
switch fluorescence ratio: 1.004 ± 0.01

ATAGTTAAAT
switch fluorescence ratio: 0.943 ± 0.089

GGGCTGGGGG
switch fluorescence ratio: 1.01 ± 0.057

AGGGATAGCT
switch fluorescence ratio: 0.967 ± 0.006

GCTGCTATTG
switch fluorescence ratio: 0.994 ± 0.02

AAAAAGTCTT
switch fluorescence ratio: 1 ± 0.015

TAGGTTTAGG
switch fluorescence ratio: 0.987 ± 0.013

AGGGGCGGGT
switch fluorescence ratio: 1.23 ± 0.46

TTCCGGGGGT
switch fluorescence ratio: 1 ± 0.015

GGGAGAAAGG
switch fluorescence ratio: 1.011 ± 0.0067

TCTCGCCAAG
switch fluorescence ratio: 1.06 ± 0.019

CAAAAAACGA
switch fluorescence ratio: 0.999 ± 0.066

TTTTCCTCCC
switch fluorescence ratio: 1.28 ± 0.24

GCATTGTCAA
switch fluorescence ratio: 0.992 ± 0.07

ACCGGTTACA
switch fluorescence ratio: 1.03 ± 0.042

GGGAAACCGG
switch fluorescence ratio: 1.06 ± 0.018

CGGGTGAGCT
switch fluorescence ratio: 1.11 ± 0.16

TAAGTTTTAT
switch fluorescence ratio: 0.984 ± 0.021

TGGTGGCCCT
switch fluorescence ratio: 1.01 ± 0.06

CGGGTGTGAG
switch fluorescence ratio: 1.006 ± 0.0055

GAGGGAAACT
switch fluorescence ratio: 1.05 ± 0.11

CCGGACAGCG
switch fluorescence ratio: 0.99 ± 0.038

CGGGGGCTGG
switch fluorescence ratio: 0.989 ± 0.059

CGCTGATTTG
switch fluorescence ratio: 1.002 ± 0.0074

ACGTTGTACA
switch fluorescence ratio: 1.06 ± 0.038

TGCAATCGGT
switch fluorescence ratio: 1.22 ± 0.065

TTTCCCGGGT
switch fluorescence ratio: 1.0123 ± 0.00051

TAAGACGTTT
switch fluorescence ratio: 1.0122 ± 0.00032

TGTTTATTGG
switch fluorescence ratio: 1.01 ± 0.065

TTTGTTAGTG
switch fluorescence ratio: 0.972 ± 0.021

GGCTTTGAAG
switch fluorescence ratio: 0.9951 ± 0.0023

TGCTAACAGG
switch fluorescence ratio: 1.022 ± 0.0078

AAAATAGATT
switch fluorescence ratio: 1.032 ± 0.0078

CTAAAAACTA
switch fluorescence ratio: 0.978 ± 0.013

CCGGGGCTGG
switch fluorescence ratio: 1.04 ± 0.037

GGCTCTTATT
switch fluorescence ratio: 1.009 ± 0.0057

TGCTGTACGG
switch fluorescence ratio: 1.01 ± 0.046

TTAAAATGTG
switch fluorescence ratio: 1.04 ± 0.059

CGATAGGGGC
switch fluorescence ratio: 1.08 ± 0.14

AGAAAGTTTT
switch fluorescence ratio: 0.993 ± 0.025

AAAGAGGTTT
switch fluorescence ratio: 0.985 ± 0.034

GGGCAAGGTG
switch fluorescence ratio: 1.21 ± 0.12

AAAGGCTCGG
switch fluorescence ratio: 0.978 ± 0.022

AAAAACGCTG
switch fluorescence ratio: 1.039 ± 0.0093

ATTGATTGTA
switch fluorescence ratio: 0.995 ± 0.035

AGGGGGACCC
switch fluorescence ratio: 1 ± 0.058

TCAGTGTGCC
switch fluorescence ratio: 0.995 ± 0.03

TTGGAATGGG
switch fluorescence ratio: 1 ± 0.026

TTACTTACTT
switch fluorescence ratio: 1.28 ± 0.081

TAAGCTTCAT
switch fluorescence ratio: 1.04 ± 0.18

GAGAGGGTTT
switch fluorescence ratio: 1 ± 0.011

TGGTCTTCGT
switch fluorescence ratio: 0.992 ± 0.057

TTTCCCATTT
switch fluorescence ratio: 1 ± 0.064

GGGGGAATAG
switch fluorescence ratio: 1.05 ± 0.046

CGTTGTTCGC
switch fluorescence ratio: 1.02 ± 0.028

AACCGTGGGG
switch fluorescence ratio: 1.05 ± 0.042

TTGTATGAAG
switch fluorescence ratio: 0.951 ± 0.061

CCCGATCATA
switch fluorescence ratio: 1.02 ± 0.017

AGGCTGGCTA
switch fluorescence ratio: 1 ± 0.019

GATATGGATT
switch fluorescence ratio: 0.977 ± 0.016

AAGGAAGGCC
switch fluorescence ratio: 1.0145 ± 0.00052

GGTTAGTACT
switch fluorescence ratio: 0.999 ± 0.017

ACTTAGGAGA
switch fluorescence ratio: 1.01 ± 0.048

CGACTAGGAA
switch fluorescence ratio: 1.04 ± 0.023

GTGGTATTAT
switch fluorescence ratio: 1.01 ± 0.021

GGGACCGAAC
switch fluorescence ratio: 1.13 ± 0.029

GGGGCATTTG
switch fluorescence ratio: 0.9834 ± 0.0011

ATCGTCGGTA
switch fluorescence ratio: 1.03 ± 0.017

TTATGGGAAA
switch fluorescence ratio: 1.02 ± 0.023

GGGTAGCTAT
switch fluorescence ratio: 0.9739 ± 0.0049

AGGTGTACTG
switch fluorescence ratio: 1.03 ± 0.058

GCATGCGCTC
switch fluorescence ratio: 1.05 ± 0.052

TTGGTGGTTT
switch fluorescence ratio: 0.988 ± 0.027

CAGTGAGGTA
switch fluorescence ratio: 0.984 ± 0.023

CAAACAGGCA
switch fluorescence ratio: 1.03 ± 0.041
